Test results taken from PMC10583499 (Science translational medicine, 2023).
Values belong to the binder of their own block, whether it stands above or below them.

What was measured:
[1] = target: His-tagged hNRP2 (amino acids 146 to 595), a2b1b2 domains, for crystallization (human, UniProt O60462-3); experiment: crystal structure
[2] = target: T1, human NRP2 (v2, NM_003872.3), untagged, stably overexpressed on Expi293F cells (Expi293F-hNRP2) (human, UniProt O60462-3 21-926); experiment: flow cytometry on cells
T1 sequence (looked up): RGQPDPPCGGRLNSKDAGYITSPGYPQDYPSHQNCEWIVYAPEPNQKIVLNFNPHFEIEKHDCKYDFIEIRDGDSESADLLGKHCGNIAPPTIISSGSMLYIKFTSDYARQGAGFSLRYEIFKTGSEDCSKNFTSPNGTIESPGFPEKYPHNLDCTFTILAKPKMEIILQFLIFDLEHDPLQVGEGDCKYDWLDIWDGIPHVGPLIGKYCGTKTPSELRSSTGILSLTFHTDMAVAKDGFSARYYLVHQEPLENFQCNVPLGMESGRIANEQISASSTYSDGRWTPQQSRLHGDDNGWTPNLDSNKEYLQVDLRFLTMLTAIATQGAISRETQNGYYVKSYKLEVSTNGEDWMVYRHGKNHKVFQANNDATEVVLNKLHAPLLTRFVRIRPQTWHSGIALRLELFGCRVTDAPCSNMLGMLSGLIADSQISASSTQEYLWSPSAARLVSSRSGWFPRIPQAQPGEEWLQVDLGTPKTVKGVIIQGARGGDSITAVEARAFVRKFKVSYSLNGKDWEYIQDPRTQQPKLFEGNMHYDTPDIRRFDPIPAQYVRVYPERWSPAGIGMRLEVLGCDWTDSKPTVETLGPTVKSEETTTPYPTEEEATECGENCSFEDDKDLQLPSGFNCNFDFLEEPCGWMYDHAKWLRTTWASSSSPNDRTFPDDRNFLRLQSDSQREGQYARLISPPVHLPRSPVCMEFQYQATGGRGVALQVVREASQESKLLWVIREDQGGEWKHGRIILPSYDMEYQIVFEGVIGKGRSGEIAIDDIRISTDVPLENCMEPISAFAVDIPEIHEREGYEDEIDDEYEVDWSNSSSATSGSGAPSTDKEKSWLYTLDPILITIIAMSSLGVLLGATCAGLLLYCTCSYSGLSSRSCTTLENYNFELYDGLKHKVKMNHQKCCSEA

[3] = target: biotinylated NRP2 (epitope binning) (Homo sapiens, UniProt O60462-3, biotin (site not stated)); experiment: BLI

binding result [1]: binds
B1: aNRP2-10 Fab (Fab, V domains shown)
VH: EVQLVQSGAEVKKPGATVKISCKVSGFNIKDYYIHWVQQAPGKGLEWMGRIDVEDDETKYAPKFQGRVTITADTSTDTAYMELSSLRSEDTAVYYCATPIYGSREAWFAYWGQGTLVTVSS
VL: DIQMTQSPSSLSASVGDRVTITCTASSSVSSSYLHWYQQKPGKAPKLLIYRTSNLASGVPSRFSGSGSGTDFTLTISSLQPEDFATYYCHQYYRSPPTFGGGTKVEIK

EC50 [2]: 0.6 nM
B2: recombinant human VEGF-C, untagged (ligand, UniProt P49767 112-227, looked up)
chain: AHYNTEILKSIDNEWRKTQCMPREVCIDVGKEFGVATNTFFKPPCVSVYRCGGCCNSEGLQCMNTSTSYLSKTLFEITVPLSQGPKPVTISFANHTSCRCMSKLDVYRQVHSIIRR

binding result [3]: binds
B3: Genentech aNRP2B antibody (antibody, V domains shown)
VH: EVQLVESGGGLVQPGGSLRLSCAASGFTITSSGIHWVRQAPGKGLEWVARITPYDGSTDYADSVKGRFTISADTSKNTAYLQMNSLRAEDTAVYYCARYRGRLLFDYWGQGTLVTVSS
VL: not shown
